Experimental data: US11820973B2, “Methods and system for interfering with viability of bacteria and related compounds and compositions” (CALIFORNIA INSTITUTE OF TECHNOLOGY, priority 2011, dated 2023)

Experiments:
[1] = tested on: P. aeruginosa PA14 wild type; experiment: Flow cell biofilm development, wild type, 1% TSB with or without conalbumin
[2] = tested on: P. aeruginosa PA14 biofilm; experiment: MBEC assay, anaerobic biofilm prevention; type: cell-based, Pseudomonas aeruginosa; details: 100 μM conalbumin, ˜10 μM Fe(II) and 10 μM Fe(III) present
Protocol: (§1) In some examples, biofilm prevention and dissolution were measured via a high-throughput biofilm assay (MBEC Physiology and Genetics Assay) consisting of a 96-well plate into which a 96-peg plastic lid fits. This lid also fits over a standard 96-well plate, which was subsequently used to test the efficacy of iron chelators. Inoculum was prepared by diluting (30-fold) a 1.0 McFarland suspension of P. aeruginosa PA14 in TSB. 150 μl, was dispensed into each of the 60 inner wells, while 200 μl, of sterile trypticase soy broth (TSB) was placed in each perimeter well. For dissolution experiments, plates were incubated at 37° C. for 24 h, and were transferred to an anaerobic chamber for 24 h at 37° C. in anaerobic TSB containing 50 mM KNO3. Biofilms were then exposed to conalbumin and/or Ferrozine® for 24 h. Each treatment was complemented with the addition of 80 μM ferrous ammonium sulfate. After treatment, lids were rinsed once in 50 mM HEPES, air dried for 10 min and quantified by crystal violet staining. For biofilm prevention, anaerobic inoculum was amended with conalbumin and/or Ferrozine®. Media was replaced every 24 h by transferring the MBEC lid to a sterile plate containing growth media+/− treatments, and biofilms were allowed to develop for 168 h. Biomass was quantified as described above. Biological triplicates and six technical replicates (n=18) were used for each treatment.

P. aeruginosa = experiment: Planktonic growth rates with iron chelators; type: cell-based, Pseudomonas aeruginosa
[3] = tested on: P. aeruginosa PA14 mature biofilms; experiment: MBEC assay, dissolution of mature biofilms; type: cell-based, Pseudomonas aeruginosa; details: conalbumin; mature biofilms; 24 h exposure
Protocol: as §1

[4] = Day 6, WT, 40 μg/ml conalbumin, 10 μM PCA or PYO

B1: conalbumin: Fe(III)-binding protein of the transferrin family, an Fe(III) chelator; substantially iron-free, from Sigma-Aldrich (protein, UniProt P02789 20-705, looked up)
Ovotransferrin: APPKSVIRWCTISSPEEKKCNNLRDLTQQERISLTCVQKATYLDCIKAIANNEADAISLDGGQAFEAGLAPYKLKPIAAEVYEHTEGSTTSYYAVAVVKKGTEFTVNDLQGKTSCHTGLGRSAGWNIPIGTLLHRGAIEWEGIESGSVEQAVAKFFSASCVPGATIEQKLCRQCKGDPKTKCARNAPYSGYSGAFHCLKDGKGDVAFVKHTTVNENAPDQKDEYELLCLDGSRQPVDNYKTCNWARVAAHAVVARDDNKVEDIWSFLSKAQSDFGVDTKSDFHLFGPPGKKDPVLKDLLFKDSAIMLKRVPSLMDSQLYLGFEYYSAIQSMRKDQLTPSPRENRIQWCAVGKDEKSKCDRWSVVSNGDVECTVVDETKDCIIKIMKGEADAVALDGGLVYTAGVCGLVPVMAERYDDESQCSKTDERPASYFAVAVARKDSNVNWNNLKGKKSCHTAVGRTAGWVIPMGLIHNRTGTCNFDEYFSEGCAPGSPPNSRLCQLCQGSGGIPPEKCVASSHEKYFGYTGALRCLVEKGDVAFIQHSTVEENTGGKNKADWAKNLQMDDFELLCTDGRRANVMDYRECNLAEVPTHAVVVRPEKANKIRDLLERQEKRFGVNGSEKSKFMMFESQNKDLLFKDLTKCLFKVREGTTYKEFLGDKFYTVISSLKTCNPSDILQMCSFLEGK
modifications: iron-free
notes: substantially iron-free, from Sigma-Aldrich
Max. biofilm thickness [1, 4]: 32 μm
Substratum coverage [1, 4]: 11.8 ± 1.3%
Total biomass ([1]; Day 6, WT, additives to 1% TSB: 40 μg/ml conalbumin, 10 μM PCA or PYO): 0.80 ± 0.08 μm^3/μm^2
Avg. thickness of biomass ([1]; Day 6, WT, calculated for the area covered by biomass, 40 μg/ml conalbumin, 10 μM PCA or PYO): 9.0 ± 0.7 μm
Biofilm formation with conalbumin (iron-free form) added ([1]; wild type, 1% TSB, 40 μg/ml conalbumin): neither strain formed biofilms
Prevention of biofilm growth [2]: ineffective in preventing biofilm growth
Effect on planktonic growth rates (P. aeruginosa): Neither compound affected planktonic growth rates
Reduction of established biomass [3]: did not significantly reduce established biomass
